# According to patent publication US20250295803A1, “5T4 ANTIBODY-DRUG CONJUGATES AND USES THEREOF” (EXELIXIS, INC., priority 2022, published 2025):
# Positions count from the first letter of the chain named.
# T1: unconjugated human TPBG/5T4 protein with a c-terminal polyhistidine and Avi tag (AcroBiosystems Cat. No. … (human, UniProt Q13641 32-355))
# T1 construct: Bought protein; also called Acro TPGH52E5; Acro Catalog No. TPGH52E; not shown: C-terminal polyhistidine and Avi tag
# T1 sequence: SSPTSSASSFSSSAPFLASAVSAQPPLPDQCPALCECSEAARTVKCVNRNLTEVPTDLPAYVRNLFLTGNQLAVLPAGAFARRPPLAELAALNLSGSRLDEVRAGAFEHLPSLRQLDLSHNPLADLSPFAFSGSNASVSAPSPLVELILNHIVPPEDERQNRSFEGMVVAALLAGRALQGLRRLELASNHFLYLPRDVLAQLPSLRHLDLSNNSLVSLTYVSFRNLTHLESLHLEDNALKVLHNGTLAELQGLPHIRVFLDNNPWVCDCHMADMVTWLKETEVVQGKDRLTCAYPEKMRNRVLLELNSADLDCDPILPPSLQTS
# T2: human 5T4 produced internally (Lot 20-019-62) (human, UniProt Q13641 32-355)
# T2 construct: 'also produced separately'; also called Internal (Lot 20-019-62)
# T2 sequence: T1 sequence
# B1: mAbA17 (antibody, V domains shown)
# VH: EVQLVESGGGLVQPGGSLRLSCAASGFTFSRYWIHWVRQAPGKGLEWVAAIFPYSGSTLYADSVKGRFTISADTSKNTAYLQMNSLRAEDTAVYYCARSPSRSILPSGLDYWGQGTLVTVSS
# VL: DIQMTQSPSSLSASVGDRVTITCRASQSVSSAVAWYQQKPGKAPKLLIYSASSLYSGVPSRFSGSRSGTDFTLTISSLQPEDFATYYCQQGDGSPYTFGQGTKVEIKR
# notes: also called Antibody mAbA17
# B2: mAbA4 (antibody, V domains shown)
# VH: EVQLVESGGGLVQPGGSLRLSCAASGFTFSRYYIHWVRQAPGKGLEWVAFISPGGSYTYYADSVKGRFTISADTSKNTAYLQMNSLRAEDTAVYYCAREYYSMGVLDYWGQGTLVTVSS
# VL: B1 VL with G91A, D92Y, G93E
# notes: also called Antibody mAbA4
# B3: mAbA15 (antibody, V domains shown)
# VH: EVQLVESGGGLVQPGGSLRLSCAASGFTFSSYYIHWVRQAPGKGLEWVAYITSTGSYTEYADSVKGRFTISADTSKNTAYLQMNSLRAEDTAVYYCARYDRSTRYSGLDYWGQGTLVTVSS
# VL: B1 VL with G91A, D92Y, G93A, S94T, Y96V
# notes: also called Antibody mAbA15
# B4: mAbA17: 5T4 antibody comprising VH of SEQ ID NO:62 and VL of SEQ ID NO:63 (antibody, V domains shown)
# VH: B1 VH
# VL: DIQMTQSPSSLSASVGDRVTITCRASQSVSSAVAWYQQKPGKAPKLLIYSASSLYSGVPSRFSGSRSGTDFTLTISSLQPEDFATYYCQQGDGSPYTFGQGTKVEIK
# modifications: Antibody mAbA17 VH Sequence; Antibody mAbA17 VL Sequence
# B5: mAbA4: 5T4 antibody comprising VH of SEQ ID NO:25 and VL of SEQ ID NO:26 (antibody, V domains shown)
# VH: B2 VH
# VL: B4 VL with G91A, D92Y, G93E
# modifications: Antibody mAbA4 VH Sequence; Antibody mAbA4 VL Sequence
# B6: mAbA15: 5T4 antibody comprising VH of SEQ ID NO:44 and VL of SEQ ID NO:45 (antibody, V domains shown)
# VH: B3 VH
# VL: B4 VL with G91A, D92Y, G93A, S94T, Y96V
# modifications: Antibody mAbA15 VH Sequence; Antibody mAbA15 VL Sequence
# Target: T1, unconjugated human TPBG/5T4 protein …
# Assay: ELISA on coated human 5T4 His-Avi (Acro TPG-H52E5); antibody condition: PBS + H2O2 time 48 hr.
# Settings: not given
# Protocol: (§1) A. Normal Binding Unconjugated antibodies were tested for their ability to bind to human 5T4 (hu5T4) using ELISA. On Day 1, unconjugated human TPBG/5T4 protein with a c-terminal polyhistidine and Avi (AVITAG™) tag (AcroBiosystems (Newark, DE, USA), Cat. No. TPG-H52E5) was diluted 2 μg/mL in PBS, mixed thoroughly, plated 100 μL per well in a 96-well plate (Nunc MAXISORP®) and incubated overnight at 4° C.
# 3. Oxidative Stress. Several unconjugated antibodies were tested for their ability to bind to 5T4 using ELISA in an oxidative environment. […]
row,EC50,Molecule
1,0.207 nM,B1
2,0.386 nM,B2
3,0.189 nM,B3

# System: HEK-5T4 cells
# Assay: Cell binding (flow cytometry), HEK-5T4 cells
# Format: cell-based
# Settings: not given
# Protocol: Antibodies that were selected for binding to 5T4, for example, such as those described in Example 2, were evaluated for binding to cells that express 5T4. Cells were harvested at 70-90% confluence on the day of the assay. In a v-bottom 96-well plate (Costar 3897), 100,000 cells per well were incubated with 50 μL per well 8- or 12-point antibody dilution series for 30 minutes at +4° C. After incubation, cells were washed once with PBS by centrifugation at 200×g for 5 minutes. Cells were then incubated with 50 μL per well of Alexa Fluor 488 Goat anti-human IgG Fab (Jackson Immuno Research 109-547-003) at 1:100 dilution for 30 minutes at +4° C. Cells were washed twice with PBS by centrifugation at 200×g for 5 minutes and were acquired on iQue Screener Plus (Sartorius). Mean fluorescence intensities of BL1 (Alexa-Fluor-488) channel were plotted against antibody concentrations to generate a dose response curve and EC50 values.
row,Molecule,binding to HEK-5T4 cells
1,B4,binding
2,B5,binding
3,B6,binding

# System: not listed separately
# Assay: Standup monolayer adsorption chromatography (SMAC) developability
# Format: physicochemical
# Settings: 1 mg/mL in Dulbecco's PBS pH 7.4
# Protocol: Antibodies that were selected for binding to 5T4, such as those described in Examples 2 and 3, were tested by various methods to assess developability. For example, various chromatographic methods, including size exclusion chromatography (SEC), hydrophobic interaction chromatography (HIC), and standup monolayer adsorption chromatography (SMAC) were employed to assess factors, such as monomer percentage, solubility, and antibody aggregation or precipitation.
# Standup monolayer adsorption chromatography (SMAC) analysis was performed using a 4.6 mm ID×300 mm Zenix SEC 300 column (Sepax Technologies, PN 213300P-4630) with a 4.6 mm×50 mm guard column (PN 213300P-4605) on an Agilent 1100 HPLC. Antibodies were normalized to 1 mg/mL concentration in Dulbecco's PBS (pH 7.4, without Ca^2+/Mg^2+) and clarified via centrifugation to pellet particulates while still retaining soluble aggregates. The mobile phase buffer was Dulbecco's PBS (pH 7.4, without Ca^2+/Mg^2+) at 2× concentration (diluted from 10× stock concentration). For each sample, 10 μL was loaded and isocratically eluted at 0.4 mL/minute over 32 minutes at ambient temperature. Absorbance was monitored at 280 nm. Sample retention time was calculated and compared to a set of standard controls to identify antibodies with increased retention time (increased propensity to form aggregates and/or increased hydrophobic/electrostatic interactions) as the column stationary phase along with mobile phase selection promotes secondary interactions in addition to molecular sizing. Data analysis was performed using Agilent ChemStation B.04.03 SP1.
row,Molecule,developability based on SMAC analysis
1,B4,strong developability
2,B5,strong developability
3,B6,strong developability

# Target: T2, human 5T4 produced internally (Lot …)
# Assay: Octet, antibody on AHC sensors, human 5T4 in solution (monovalent); Internal Lot 20-019-62
# Settings: not given
# Protocol: Monovalent binding assays were employed to determine the relative affinity of each 5T4 binder obtained by the phage display in Example 1 to human 5T4. Human 5T4 was purchased from Acro Biosystems (Acro Catalog No. TPGH52E) and also produced separately. The monovalent interaction of binders to human 5T4 was monitored using an Octet (Pall ForteBio) instrument. For these assays, 36 nM antibody was immobilized on anti-human Fc (AHC) sensors in 1× kinetic buffer (ForteBio). The sensors were then dipped in wells containing a 3× serial dilution of human 5T4 ranging from 1 μM to 1.37 nM. The association was allowed to reach equilibrium. Sensors were then moved to wells containing only 1× kinetic buffer and allowed to dissociate to equilibrium. Association and dissociation rates were measured and from these, monovalent KDS were calculated using the onboard analysis software (ForteBio).
row,Kd,Molecule
1,9.34 nM,B1
2,83 nM,B2
3,10.4 nM,B3

# Target: T1, unconjugated human TPBG/5T4 protein …
# Assay: ELISA on coated human 5T4 His-Avi (Acro TPG-H52E5); antibody condition: PBS time 24 hr.
# Settings: not given
# Protocol: as §1
# 3. Oxidative Stress. Several unconjugated antibodies were tested for their ability to bind to 5T4 using ELISA in an oxidative environment. Solutions of 1 mg/mL to 10 mg/mL of antibody in 20 mM citrate/50 mM NaCl at a pH of 5.5 were prepared and stored at 37° C. for 1 to 2 weeks.
row,EC50,Molecule
1,0.186 nM,B1
2,0.2 nM,B2
3,0.212 nM,B3
